In EP3057986B1 one finds 24-hour cytotoxicity against NB1691 cells data, which are given here for one substance.

The target of the assay is CD16V-BB-ζ chimeric receptor (human). Put plainly: cell-based or functional assay.

For the substance hu14.18K322A (antibody), the 24-hour cytotoxicity against NB1691 cells at 1:8 E:T was greater than 50%.
